The text below walks through data of patent publication US20240092930A1 (MABWELL SHANGHAI BIOSCIENCE, published 2024).

Assay [1] concerns the target T1, human Trop-2 on the surface of cells (CHO/Trop-2 cells; BxPC-3 cells; NCI-N87 cells) (human, UniProt P09758 27-323).
T1 construct: whole, on cells; One molecule for all cell lines; the cell line is named under assay or readout; also called Trop-2 on the surface of CHO cells; recombinant human Trop-2 protein on the surface of CHO cells
T1 sequence (looked up): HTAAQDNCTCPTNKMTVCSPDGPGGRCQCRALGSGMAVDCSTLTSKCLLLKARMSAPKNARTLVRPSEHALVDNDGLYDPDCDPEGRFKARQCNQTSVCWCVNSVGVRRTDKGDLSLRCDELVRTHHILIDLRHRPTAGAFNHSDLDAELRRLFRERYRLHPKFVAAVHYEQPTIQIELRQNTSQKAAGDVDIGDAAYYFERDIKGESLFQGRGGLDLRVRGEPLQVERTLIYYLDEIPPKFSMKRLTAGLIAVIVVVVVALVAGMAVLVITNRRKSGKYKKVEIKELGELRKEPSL
Put plainly: FACS, CHO/Trop-2 cells. The method, then: Suspensions of CHO cells recombinantly expressing human Trop-2 (CHO/Trop-2 cells) were incubated with chimeric antibodies ch3-11, ch4-3, ch17-1, ch11-4, and ch23-12 (dilutions at concentrations of 30 μg/ml and 10 μg/ml, and serial dilutions of 9 concentrations obtained through 3-fold serially diluting a solution with an initial concentration of 5 μg/ml, 11 concentrations in total) for 30 min at 37° C. Controls as follows were set: (1) Positive Control (PC): control antibody Sacituzumab; (2) Negative Control (NC): IgG1 isotype control antibody NC-IgG1. The cells were washed 3 times with PBS, and 1:100 dilution of goat anti-human IgG-FITC (Cat.: F9512, Sigma) was added into the cell which then were incubated for 30 min. Then the cells were washed 3 times with PBS again, and the Mean Fluorescence Intensity (MFI) of the cells was measured by a flow cytometer (model B49007AD, SNAW31211, BECKMAN COULTER) to detect binding ability of the chimeric antibodies to human Trop-2 on the surface of CHO cells.

For assay [2], the target named is T2, recombinant human Trop-2-his protein (ACCESSION NO.: NP_002344.2, AA 1-274) (human, UniProt P09758 27-274).
T2 construct: range 27-274; also called recombinant human Trop-2 protein; recombinant human Trop-2 extracellular domain; not shown: his tag
T2 sequence (looked up): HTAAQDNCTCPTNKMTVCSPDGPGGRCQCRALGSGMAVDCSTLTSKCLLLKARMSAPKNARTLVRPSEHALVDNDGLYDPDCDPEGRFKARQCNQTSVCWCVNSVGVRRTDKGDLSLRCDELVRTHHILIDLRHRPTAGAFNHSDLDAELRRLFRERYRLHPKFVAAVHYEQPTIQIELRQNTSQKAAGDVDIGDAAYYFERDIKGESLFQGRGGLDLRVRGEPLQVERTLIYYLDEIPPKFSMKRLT
Briefly: ELISA, coated Trop-2-his 0.2 µg/ml. The procedure:
Plates were coated with recombinant human Trop-2-his protein (ACCESSION NO.: NP_002344.2, AA 1-274) at a concentration of 0.2 μg/ml overnight at 4° C. and then blocked with 5% BSA for 60 min in a constant temperature incubator at 37° C. Chimeric antibodies ch3-11, ch4-3, ch17-1, ch11-4, and ch23-12 and control antibody Sacituzumab (serial dilutions of 8 concentrations in total obtained through 3-fold serially diluting a solution with an initial concentration of 2 μg/ml) were added into the plates which were then incubated in a constant temperature incubator at 37° C. for 60 min. The plates were washed with PBST 4 times, and 1:5000 dilution of HRP-anti-human Fc (Cat.: 109-035-098, Jackson ImmunoResearch) was added into the plates for reaction for 45 min. TMB (Cat.: ME142, GalaxyBio, Beijing) substrate was added for color development for 15 min, and then 2M HCl was added to stop reaction. Absorbances at 450 nm and at 630 nm (as reference wavelength) were read, and A450 nm-630 nm values of the wells in the plates were recorded.

The target of assay [3] is T2, recombinant human Trop-2-his protein …. Put plainly: BLI, antibody on AHC sensor, Trop-2-his 60 nM. In a few lines: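 Humanized antibodies at 4 μg/ml in PBS captured via Fc on anti-human IgG Fc (AHC) biosensors for 120 s; 60 nM Trop-2-his (AA 1-274) as analyte, 100 s association, 300 s dissociation. Blank-subtracted responses fitted to 1:1 Langmuir model for kinetic constants.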

B1: Sacituzumab (antibody, human IgG1, kappa, V domains shown)
VH: QVQLQQSGSELKKPGASVKVSCKASGYTFTNYGMNWVKQAPGQGLKWMGWINTYTGEPTYTDDFKGRFAFSLDTSVSTAYLQISSLKADDTAVYFCARGGFGSSYWYFDVWGQGSLVTVSS
VL: DIQLTQSPSSLSASVGDRVSITCKASQDVSIAVAWYQQKPGKAPKLLIYSASYRYTGVPDRFSGSGSGTDFTLTISSLQPEDFAVYYCQQHYITPLTFGAGTKVEIKR
notes: expressed in HEK293; also called control antibody Sacituzumab; Saituzumab
Regarding B1, the EC50 in assay [1] was 2.32 nM; in assay [2] it was 0.271 nM. Besides, the Kd in assay [3] amounted to 0.723 nM.
